Assay results reported in patent US20150087809A1.

B1: SEQ ID NO 49 (peptide)
peptide: AFYGVWPLL
modifications: not checked
B2: SEQ ID NO 76 (peptide)
peptide: WLRDVWDWI
modifications: not checked
B3: SEQ ID NO 67 (peptide)
peptide: AYYSMVGNW
modifications: not checked
B4: SEQ ID NO 52 (peptide)
peptide: WHYPCTVNF
modifications: not checked
B5: SEQ ID NO 58 (peptide)
peptide: AQPGYPWPL
modifications: not checked
B6: SEQ ID NO 54 (peptide)
peptide: GLIHLHQNI
modifications: not checked
B7: SEQ ID NO 56 (peptide)
peptide: TVLADFKTW
modifications: not checked
B8: SEQ ID NO 59 (peptide)
peptide: PLLRDEVTF
modifications: not checked
B9: SEQ ID NO 61 (peptide)
peptide: SYTWTGALI
modifications: not checked
B10: SEQ ID NO 45 (peptide)
peptide: VILDSFEPL
modifications: not checked
B11: SEQ ID NO 65 (peptide)
peptide: LLKRLHQWI
modifications: not checked
B12: SEQ ID NO 75 (peptide)
peptide: ILLGPADSF
modifications: not checked
B13: SEQ ID NO 71 (peptide)
peptide: RYAPACKPL
modifications: not checked
B14: SEQ ID NO 64 (peptide)
peptide: LMTHFFSIL
modifications: not checked
B15: SEQ ID NO 55 (peptide)
peptide: LMCAVHPEL
modifications: not checked
B16: SEQ ID NO 60 (peptide)
peptide: ILMTHFFSI
modifications: not checked
B17: SEQ ID NO 40 (peptide)
peptide: ITYSTYCKF
modifications: not checked
B18: SEQ ID NO 13 (peptide)
peptide: ILMTHFFSI
modifications: not checked
B19: SEQ ID NO 12 (peptide)
peptide: AQPGYPWPL
modifications: not checked
B20: SEQ ID NO 2 (peptide)
peptide: VILDSFDPI
modifications: not checked
B21: SEQ ID NO 22 (peptide)
peptide: AYYSMVGNW
modifications: not checked
B22: SEQ ID NO 14 (peptide)
peptide: SYTWTGALI
modifications: not checked
B23: SEQ ID NO 27 (peptide)
peptide: ILLGPADSF
modifications: not checked
B24: SEQ ID NO 1 (peptide)
peptide: ILPCSFTTL
modifications: not checked
B25: SEQ ID NO 37 (peptide)
peptide: NFSRCWVAL
modifications: not checked
B26: SEQ ID NO 18 (peptide)
peptide: LMTHFFSIL
modifications: not checked
B27: SEQ ID NO 42 (peptide)
peptide: LLSTTEWQI
modifications: not checked
B28: SEQ ID NO 8 (peptide)
peptide: WHYPCTVNF
modifications: not checked
B29: SEQ ID NO 19 (peptide)
peptide: LLKRLHQWI
modifications: not checked
B30: SEQ ID NO 112 (peptide)
peptide: VLADFKTWL
modifications: not checked
B31: SEQ ID NO 96 (peptide)
peptide: ILMTHFFSI
modifications: not checked
B32: SEQ ID NO 98 (peptide)
peptide: AFYGVWPLL
modifications: not checked
B33: SEQ ID NO 94 (peptide)
peptide: GLIHLHQNI
modifications: not checked
B34: SEQ ID NO 109 (peptide)
peptide: LLSTTEWQI
modifications: not checked
B35: SEQ ID NO 90 (peptide)
peptide: TVLADFKTW
modifications: not checked
B36: SEQ ID NO 87 (peptide)
peptide: PLLRDEVTF
modifications: not checked
B37: SEQ ID NO 102 (peptide)
peptide: AYYSMVGNW
modifications: not checked
B38: SEQ ID NO 100 (peptide)
peptide: ILLGPADSF
modifications: not checked
B39: SEQ ID NO 110 (peptide)
peptide: RYAPACKPL
modifications: not checked
B40: SEQ ID NO 108 (peptide)
peptide: SYTWTGALI
modifications: not checked
B41: SEQ ID NO 106 (peptide)
peptide: WLRDVWDWI
modifications: not checked
B42: SEQ ID NO 104 (peptide)
peptide: LLKRLHQWI
modifications: not checked
B43: SEQ ID NO 84 (peptide)
peptide: VILDSFEPL
modifications: not checked
B44: SEQ ID NO 123 (peptide)
peptide: VFPDLGVRV
modifications: not checked
B45: SEQ ID NO 92 (peptide)
peptide: WHYPCTVNF
modifications: not checked
B46: SEQ ID NO 107 (peptide)
peptide: ITYSTYGKF
modifications: not checked

Target: T1, HLA-A24 type molecule (product of the HLA-A*2402 gene) (human)
Details: not given

Question: Which -log Kd does the source give for B1 here?
Answer: 7.73 -log Kd (M)

Question: How did the -log Kd turn out when B2 was run?
Answer: 6.34 -log Kd (M)

Question: How did the -log Kd turn out when B3 was run?
Answer: 6.47 -log Kd (M)

Question: For B4, which -log Kd is on record?
Answer: 6.39 -log Kd (M)

Question: For B5, which -log Kd is on record?
Answer: 5.36 -log Kd (M)

Question: For B6, which -log Kd is on record?
Answer: 5.86 -log Kd (M)

Question: With B7 as the binder, how does the -log Kd read?
Answer: 6.52 -log Kd (M)

Question: How did the -log Kd turn out when B8 was run?
Answer: 5.09 -log Kd (M)

Question: B9 was tested. Which -log Kd did it give?
Answer: 7.13 -log Kd (M)

Question: B10 was tested. Which -log Kd did it give?
Answer: 5 -log Kd (M)

Question: Which -log Kd does the source give for B11 here?
Answer: 6.86 -log Kd (M)

Question: With B12 as the binder, how does the -log Kd read?
Answer: 5.5 -log Kd (M)

Question: With B13 as the binder, how does the -log Kd read?
Answer: 6.76 -log Kd (M)

Question: For B14, which -log Kd is on record?
Answer: 5.92 -log Kd (M)

Question: Which -log Kd does the source give for B15 here?
Answer: 6.59 -log Kd (M)

Question: For B16, which -log Kd is on record?
Answer: 7.9 -log Kd (M)

Target: T1, HLA-A24 type molecule (product of the …)
Details: not given
Remark: another data set of the same source

Question: Which -log Kd does the source give for B17 here?
Answer: 6.98 -log Kd (M)

Question: For B18, which -log Kd is on record?
Answer: 7.9 -log Kd (M)

Question: With B19 as the binder, how does the -log Kd read?
Answer: 5.36 -log Kd (M)

Question: B20 was tested. Which -log Kd did it give?
Answer: 5.32 -log Kd (M)

Question: How did the -log Kd turn out when B21 was run?
Answer: 6.47 -log Kd (M)

Question: For B22, which -log Kd is on record?
Answer: 7.13 -log Kd (M)

Question: For B23, which -log Kd is on record?
Answer: 5.5 -log Kd (M)

Question: Which -log Kd does the source give for B24 here?
Answer: 7.66 -log Kd (M)

Question: How did the -log Kd turn out when B25 was run?
Answer: 6.28 -log Kd (M)

Question: With B26 as the binder, how does the -log Kd read?
Answer: 5.92 -log Kd (M)

Question: Which -log Kd does the source give for B27 here?
Answer: 8.34 -log Kd (M)

Question: For B28, which -log Kd is on record?
Answer: 6.39 -log Kd (M)

Question: B29 was tested. Which -log Kd did it give?
Answer: 6.86 -log Kd (M)

Target: T1, HLA-A24 type molecule (product of the …)
Details: not given
Remark: another data set of the same source

Question: With B30 as the binder, how does the -log Kd read?
Answer: 6.63 -log Kd (M)

Question: Which -log Kd does the source give for B31 here?
Answer: 7.9 -log Kd (M)

Question: Which -log Kd does the source give for B32 here?
Answer: 7.73 -log Kd (M)

Question: With B33 as the binder, how does the -log Kd read?
Answer: 5.86 -log Kd (M)

Question: Which -log Kd does the source give for B34 here?
Answer: 8.34 -log Kd (M)

Question: B35 was tested. Which -log Kd did it give?
Answer: 6.52 -log Kd (M)

Question: For B36, which -log Kd is on record?
Answer: 5.09 -log Kd (M)

Question: For B37, which -log Kd is on record?
Answer: 6.47 -log Kd (M)

Question: For B38, which -log Kd is on record?
Answer: 5.5 -log Kd (M)

Question: How did the -log Kd turn out when B39 was run?
Answer: 6.76 -log Kd (M)

Question: With B40 as the binder, how does the -log Kd read?
Answer: 7.13 -log Kd (M)

Question: For B41, which -log Kd is on record?
Answer: 6.34 -log Kd (M)

Question: B42 was tested. Which -log Kd did it give?
Answer: 6.86 -log Kd (M)

Question: B43 was tested. Which -log Kd did it give?
Answer: 5 -log Kd (M)

Question: How did the -log Kd turn out when B44 was run?
Answer: 6.74 -log Kd (M)

Question: B45 was tested. Which -log Kd did it give?
Answer: 6.39 -log Kd (M)

Same assay, conditions: remark: other sources report otherwise

Question: Which -log Kd does the source give for B46 here?
Answer: 6.37 -log Kd (M)
